For the first test, the target named is HERC2 (endogenous, HEK293 cells) [human (endogenous in HEK293)]. The test can be described thus: co-immunoprecipitation (FLAG-IP) and Western blotting, band quantification. To be noted: mean ± SE from five repeated experiments; parent: 1; read off a plot. On the technique in general: Immunoblotting shows a protein as a band on a membrane.
As for “FLAG-tagged human LRRK2 (wild type) mutant R1398L [human] / HERC2 (endogenous, HEK293 cells) [human (endogenous in HEK293)] chain 1 R1398L”, the ratio to parent came to 1.4.

As to “FLAG-tagged human LRRK2 (wild type) mutant R1441G [human] / HERC2 (endogenous, HEK293 cells) [human (endogenous in HEK293)] chain 1 R1441G”, the ratio to parent is 2.5.

Turning to “FLAG-tagged human LRRK2 (wild type) mutant T1348N [human] / HERC2 (endogenous, HEK293 cells) [human (endogenous in HEK293)] chain 1 T1348N”, the ratio to parent came out at 3.4.

A further test concerns the target NEURL4 (endogenous, HEK293 cells) [human (endogenous in HEK293)]. The description is as above. Particulars: mean ± SE from five repeated experiments; parent: 1; read off a plot.
As for “FLAG-tagged human LRRK2 (wild type) mutant R1398L [human] / NEURL4 (endogenous, HEK293 cells) [human (endogenous in HEK293)] chain 1 R1398L”, the ratio to parent was 1.8.

As to “FLAG-tagged human LRRK2 (wild type) mutant R1441G [human] / NEURL4 (endogenous, HEK293 cells) [human (endogenous in HEK293)] chain 1 R1441G”, the ratio to parent came out at 3.2.

“FLAG-tagged human LRRK2 (wild type) mutant T1348N [human] / NEURL4 (endogenous, HEK293 cells) [human (endogenous in HEK293)] chain 1 T1348N”: the ratio to parent came to 4.3.
